The record followed here is US20240382677A1 (Regeneron, published 2024).

The target in assay [1] is T1, monkey PD-1 with mFc (monkey PD-1-mFc) (monkey).
T1 construct: also called monkey PD-1 dimer; MfPD-1 dimer
T1 chain: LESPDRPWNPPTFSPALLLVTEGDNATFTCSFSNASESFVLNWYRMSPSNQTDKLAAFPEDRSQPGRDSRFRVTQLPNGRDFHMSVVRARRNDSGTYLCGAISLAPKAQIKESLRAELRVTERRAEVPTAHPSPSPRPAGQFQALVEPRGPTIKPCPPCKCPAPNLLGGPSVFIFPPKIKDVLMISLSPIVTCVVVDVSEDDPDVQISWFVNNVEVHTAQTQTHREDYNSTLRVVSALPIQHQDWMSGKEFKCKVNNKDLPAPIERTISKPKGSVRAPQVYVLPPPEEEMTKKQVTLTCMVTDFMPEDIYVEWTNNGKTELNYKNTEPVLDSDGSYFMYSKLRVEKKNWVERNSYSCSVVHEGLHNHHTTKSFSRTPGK
Kind of assay: SPR 25C, mAb captured.
Experimental: (§1) Binding association and dissociation rate constants (ka and kd, respectively), equilibrium dissociation constants and dissociation half-lives (KD and t½, respectively) for antigen binding to purified anti-PD1 antibodies were determined using a real-time surface plasmon resonance biosensor assay on a Biacore 4000 or Biacore T200 instrument. […] Experiments were performed at 25° C. and 37° C. Kinetic association (ka) and dissociation (kd) rate constants were determined by processing and fitting the data to a 1:1 binding model using Scrubber 2.0c curve fitting software. Binding dissociation equilibrium constants (KD) and dissociative half-lives (t½) were then calculated from the kinetic rate constants as: KD (M)=kd/ka and t½ (min)=[ln 2/(60*kd)].

The target of assay [2] is T1, monkey PD-1 with mFc (monkey PD-1-mFc). Kind of assay: SPR 37C, mAb captured.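 Note: Real-time binding of antigen to purified anti-PD-1 antibodies, measured by surface plasmon resonance on a Biacore 4000 or T200 instrument.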
Experimental: as §1
In assay [3] the target is T2, recombinant human PD-1 dimer expressed with a C-terminal mouse IgG2a Fc tag (hPD-1-mFc) (human).
T2 construct: also called human PD-1-mFc
In words: BLI Octet Red 96, captured hPD-L1-hFc. For orientation: BLI is a label-free optical method that tracks binding on a fibre tip over time.
Experimental: Inhibition studies for anti-PD-1 monoclonal antibodies expressed with a mouse Fc were performed on an Octet Red 96 instrument. […] The biosensors were washed in Octet HBST buffer in between each step of the experiment. The real-time binding responses were monitored during the entire course of the experiment and the binding response at the end of every step was recorded.

B1: H4xH8992P (antibody, V domains shown)
VH: EVQLVESGGGLVQPGRSLRLSCVASGFALHDYAMHWVRQVPGKGLEWVSSISWNSGVIGYADSLKGRFTISRDNAKNSLYLQMNSLRAEDTALYYCAKGSGSYYVSWFDPWGQGTLVTVSS
VL: not shown
notes: human IgG4 Fc with 2 or more amino acid changes (US20100331527)
B1: the entries for the “100 nM Monkey PD-1-mFc Bound” value in assay [1] and in assay [2] were 122 RU and 86 RU, respectively. Also, the values for the t½ in assay [1] and in assay [2] were 0.767 h and 0.133 h, respectively.

B2: H4H7795N2 (antibody, human IgG4 S228P, kappa, V domains shown)
VH: EVQVVESGGGLVEPGRSLRLSCKASGFTFDDYAMHWVRQTPGKALEWVSGISWSGNNIGYADSVKGRFTISKDDAKNSLYLQMNSLRPEDTALYYCTKDISITGTLDAFDVWGQGTMVTVSS
VL: DIQMTQSPISVSASVGDRVTITCRASQGISNWLAWYQQKPGIAPKLLIYSASSLQSGVPSRFRGSGSGTDFTLTIGSLQPEDFATYYCQQAHSFPLTFGGGTKVEIKR
notes: human IgG4 Fc
Take B2: the “100 nM Monkey PD-1-mFc Bound” value in assay [1] stood at 60 RU; in assay [2], 47 RU. Also, the t½ in assay [1] amounted to 1.93 h; in assay [2], 0.667 h.

B3: H2aM7795N (antibody, mouse IgG2a, V domains shown)
VH: EVQVVESGGGLVEPGRSLRLSCKASGFTFDDYAMHWVRQTPGKALEWVSGINWSGNNIGYADSVKGRFTISKDDAKNSLYLQMNSLRPEDTALYYCTKDISITGTLDAFDVWGQGTMVTVSS
VL: DIQMTQSPISVSASVGDRVTITCRASQGISNWLAWYQQKPGIAPKLLIYSASSLQSGVPSRFRGSGSGTDFTLTIGSLQPEDFATYYCQQAHSFPLTFGGGTKVEIK
notes: mouse IgG2a Fc; human variable regions; also called H2M7795N
As for B3, in assay [3], the “binding of the mixture of 100 nM hPD-1-mFc and 500 nM antibody” value (shortened to “binding”) was -0.01 nm.

B4: H4xH9008P (antibody, V domains shown)
VH: EVQLVESGGGLVRPGGSLRLSCAASGFTFSTYAMAWVRQTPGKGLEGVSAIGGSGDSTYYVDSVKGRFTISRDNSKSTLFLQMNSLRAEDTAVYYCVKVRNYDGSFDIWGQGTMVTVSS
VL: not shown
notes: as for B1
In assay [1], B4 displayed a t½ of 3.33 h. In addition, in assay [2], the “100 nM Monkey PD-1-mFc Bound” value came out at 98 RU.

B5: H4H9057P2 (antibody, V domains shown)
VH: EVQLVESGGGLVQSGRSLRLSCAASGFTFDDYAMHWVRQPPGKGLEWVSGINWNRGRTGYADSVKGRFTISRDNAKNSLYLQMNDLRVEDTALYYCAKAEQWLDEGYFDYWGQGTLVTVSS
VL: not shown
As to B5, in assay [1], the “100 nM Monkey PD-1-mFc Bound” value is 75 RU, the Kd is 2.96 nM and the t½ was 0.633 h. For the same molecule, in assay [2], the “100 nM Monkey PD-1-mFc Bound” value was determined as 28 RU and the t½ worked out at 0.04 h.

B6: H4xH9035P (antibody, V domains shown)
VH: EVQLVESGGRVVRPGGSLRLSCAASGFTFDDYGMSWVRQLPGKGLEWVAGISWNDGKTVYAESVKGRFIISRDNAKNSLHLEMNSLRAEDTALYYCARDWQYLIDRYFDFWGQGTLVTVSS
VL: not shown
As for B6, in assay [1], the “100 nM Monkey PD-1-mFc Bound” value was found to be 78 RU and the t½ amounted to 1.93 h. Further, in assay [2], the “100 nM Monkey PD-1-mFc Bound” value amounted to 40 RU and the t½ amounted to 0.317 h.

B7: H4xH9048P2 (antibody, V domains shown)
VH: QVQLVQSGAEVKRPGSSVKVSCKVSGVTFRNFAIIWVRQAPGQGLEWMGGIIPFFSAANYAQSFQGRVTITPDESTSTAFMELASLRSEDTAVYYCAREGERGHTYGFDYWGQGTLVTVSS
VL: not shown
Consider B7, for which, in assay [1], the “100 nM Monkey PD-1-mFc Bound” value was found to be 115 RU and the t½ was determined as 1.05 h. In addition, the “100 nM Monkey PD-1-mFc Bound” value in assay [2] was determined as 84 RU.

B8: H2aM7788N (antibody, mouse IgG2a, V domains shown)
VH: EVQLVESGGGLVQPGGSLRLSCGASGFTFRNYDMHWVRQITGKGLEWVSAIGSAGDTYYPDSVKGRFTISRENAKNSLYLQMNSLRVGDTAVYYCTRDIHCSSTRCYGMDVWGQGTTVTVSS
VL: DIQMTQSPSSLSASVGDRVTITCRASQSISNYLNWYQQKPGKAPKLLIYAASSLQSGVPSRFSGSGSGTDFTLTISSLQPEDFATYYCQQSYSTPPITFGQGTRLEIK
notes: mouse IgG2a Fc; human variable regions; also called H2M7788N
In the case of B8, the “binding” value in assay [3] was 0 nm.

B9: H2aM7791N (antibody, mouse IgG2a, V domains shown)
VH: QMQLQQWGAGLLKPSETLSLTCVVYGGSLNGYYWSWIRQSPGKGLEWIGEIDHSGSTNYNPSLKNRVTMSVDTSKIQFSLKLTSVTVADTAVYYCAREGLLPFDYWGQGTLVTVSS
VL: EIVLTQSPGTLSLSPGERVTLSCRASQSVYSNYLAWYQQNPGQAPRLLIYAASNRATGIPDRFSGSGSGTDFTLTISRLEPEDFAVYYCHQYATSPWTFGQGTKVEIK
notes: mouse IgG2a Fc; human variable regions; also called H2M7791N
With B9, in assay [3], the “binding” value stood at 0.23 nm.

B10: H4xH8999P (antibody, V domains shown)
VH: QLQLQESGPGLVQPSETLSLTCTVSGDSISSTAYHWDWIRQPPGKGLEWIGTITYNGNTYFNPSLKSRVTISVDTSKNQFSLKLLSMTAAETAVFYCARHLGYNSDFFPFDFWGQGTLVTVSS
VL: not shown
notes: as for B1
In the case of B10, in assay [1], the “100 nM Monkey PD-1-mFc Bound” value was determined as 128 RU and the t½ amounted to 1.67 h. Further, in assay [2], the “100 nM Monkey PD-1-mFc Bound” value was 83 RU and the t½ came to 0.383 h.

B11: H2aM7796N (antibody, mouse IgG2a, V domains shown)
VH: QVQLVESGGGVVQPGRSLRLSCAASGFTFSSYGMHWVRQAPGKGLEWVAIIWSDGDSEYNLDSVKGRFTISRDNSKNTLYLQMNSLRVEDSAVYYCARDRDLEDIWGQGTMVTVSS
VL: DIQMTQSPSSLSASVGDRVTITCRASQGIRNDLGWYQQKPGKAPKRLIYAASNLQSGVPSRFSGSGSGTEFTLTISSLQPEDFATYYCLQHNSYPLTFGGGTKVEIK
notes: mouse IgG2a Fc; human variable regions; also called H2M7796N
With B11, the “binding” value in assay [3] is -0.02 nm.

B12: H4H7798N (antibody, human IgG4 S228P, kappa, V domains shown)
VH: EVQLLESGGVLVQPGGSLRLSCAASGFTFSNFGMTWVRQAPGKGLEWVSGISGGGRDTYFADSVKGRFTISRDNSKNTLYLQMNSLKGEDTAVYYCVKWGNIYFDYWGQGTLVTVSS
VL: DIQMTQSPSSLSASVGDSITITCRASLSINTFLNWYQQKPGKAPNLLIYAASSLHGGVPSRFSGSGSGTDFTLTIRTLQPEDFATYYCQQSSNTPFTFGPGTVVDFRR
notes: human IgG4 Fc; also called REGN2810; cemiplimab
Consider B12, for which, in assay [1], the “100 nM Monkey PD-1-mFc Bound” value was found to be 93 RU and the t½ is 3.13 h. For the same molecule, in assay [2], the “100 nM Monkey PD-1-mFc Bound” value was found to be 88 RU and the t½ came out at 1.52 h.

B13: H1M7789N (antibody, mouse IgG1, V domains shown)
VH: EVQLLESGGGLVQPGGSLRLSCSASGFTFSSYTMNWVRQAPGKGLEWVSGISDTGGNTYYTDSVKGRFTVSRDNSKNTLSLQMNSLRAEDTAVYYCAKDQGGSYPYYFHYWGQGSLVTVSS
VL: DIQMTQSPSSLSASVGDRVTITCRASQSISSYLIWYQQKPGTAPKFLIYAASSLQSGVPSRFSGCGSGTDFTLTISSLQPEDFATYYCQQSYSTPPITFGQGTRLEIK
notes: mouse IgG1 Fc; human variable regions; also called H1M7789W
In the case of B13, the “binding” value in assay [3] was 0.05 nm.

B14: H4xH9045P (antibody, V domains shown)
VH: EVQLVESGGGLVQPGRSLRLSCAASGFTFDDYDMHWVRQAPGKGLEWVSGSGWNRGSLGYADSVKGRFTISRDNAKKSLYLQMNSVRVEDTALYYCAKGFVVVSAAYFDYWGQGTLVTVSS
VL: not shown
For the molecule B14, in assay [1], the “100 nM Monkey PD-1-mFc Bound” value came out at 78 RU and the t½ amounted to 1.15 h. For the same molecule, in assay [2], the “100 nM Monkey PD-1-mFc Bound” value turned out to be 65 RU and the t½ was determined as 0.133 h.

B15: H2aM7794N (antibody, V domains shown)
VH: QLQLQESGPDLVKPSDTLSLTCTVSDDSISSTTYYWAWIRQPPGKGLEWIGSMSYNGNNYYNPSLKSRVAISAGTSQKQFSLKLTSVTAADTAVYHCARHLGYNGNWYPFDFWGQGILVTVSS
VL: not shown
notes: mouse IgG2a Fc; human variable regions; also called H2M7794N
As for B15, in assay [3], the “binding” value is -0.01 nm.

B16: H4xH9037P (antibody, V domains shown)
VH: EVQLVESGGGLVQPGGSLRLSCAASGFTFDDYAMHWVRQAPGKGLEWVSGIGWSSGSIGYADSVKGRFTISRDNAKNSLYLQMDSLRPEDSALYYCAKAYTFMITLYFDYWGQGTLVTVSS
VL: not shown
For B16, the “100 nM Monkey PD-1-mFc Bound” value was determined as 58 RU in assay [1] and 24 RU in assay [2]. In assay [1], the t½ stood at 1.4 h.

Usually t½ stands for the time in which the quantity being followed falls by half. One may read the Kd as the concentration at which binding is half-saturated.
